Reference: patent US7465582B1, “Nurr-1 induction of a dopaminergic neuronal fate in a neural stem cell or neural progenitor cell in vitro” (Neuro Therapeutics AB, priority 2000, dated 2008)

B1: CNTF: Ciliary Neurotrophic Factor (protein, UniProt P26441 1-200, looked up)
Ciliary neurotrophic factor: MAFTEHSPLTPHRRDLCSRSIWLARKIRSDLTALTESYVKHQGLNKNINLDSADGMPVASTDQWSELTEAERLQENLQAYRTFHVLLARLLEDQQVHFTPTEGDFHQAIHTLLLQVAAFAYQIEELMILLEYKIPRNEADGMPINVGDGGLFEKKLWGLKVLQELSQWTVRSIHDLRFISSHQTGIPARGSHYIANNKKM
B2: BDNF: Brain Derived Neurotrophic Factor (protein, UniProt P23560 19-247, looked up)
Neurotrophic factor BDNF …: APMKEANIRGQGGLAYPGVRTHGTLESVNGPKAGSRGLTSLADTFEHVIEELLDEDQKVRPNEENNKDADLYTSRVMLSSQVPLEPPLLFLLEEYKNYLDAANMSMRVRRHSDPARRGELSVCDSISEWVTAADKKTAVDMSGGTVTVLEKVPVSKGQLKQYFYETKCNPMGYTKEGCRGIDKRHWNSQCRTTQSYVRALTMDSKKRIGWRFIRIDTSCVCTLTIKRGR
B3: NT-3: neurotrophin-3 (protein, UniProt P20783 139-257, looked up)
Neurotrophin-3: YAEHKSHRGEYSVCDSESLWVTDKSSAIDIRGHQVTVLGEIKTGNSPVKQYFYETRCKEARPVKNGCRGIDDKHWNSQCKTSQTYVRALTSENNKLVGWRWIRIDTSCVCALSRKIGRT
B4: GDNF: Glial cell line-Derived Neurotrophic Factor (protein, UniProt P39905 78-211, looked up)
Glial cell line-derived …: SPDKQMAVLPRRERNRQAAAANPENSRGKGRRGQRGKNRGCVLTAIHLNVTDLGLGYETKEELIFRYCSGSCDAAETTYDKILKNLSRNRRLVSDKVGQACCRPIAFDDDLSFLDDNLVYHILRKHSAKRCGCI

How the values were obtained:
[1] = system: Nurr1-c42-derived dopaminergic neurons; experiment: Response of TH positive c42 cells in co-culture to neurotrophic factors; format: cell-based, mouse; conditions: 9 DIV, after SR11237 and bFGF induction; for neuritogenesis and/or hypertrophy: BDNF 30 ng/ml, CNTF 10 ng/ml, GDNF 10 ng/ml
Method: (§1) C17.2 neural stem cells (Snyder, E. Y. et al. Cell 68, 33-51 (1992)) were maintained and passaged as previously described (Snyder, E. Y. et al. Cell 68, 33-51 (1992)). Ventral mesencephala from E16 rat embryos were dissected, mechanically dissociated and plated at a final density of 1×10^5 cells/cm^2 on poly-D-lysine coated culture wells in a defined, serum-free medium (N^2, consisting of a 1:1 mixture of F12 and DMEM containing insulin (10 ng/ml), transferrin (100 μg/ml), putrescine (100 μM), progesterone (20 nM), selenium (30 nM) glucose (6 mg/ml), and bovine serum albumin (1 mg/ml)). After 24 hours in vitro, co-cultures were initiated by directly plating 2.5−5×10^4 C17.2-derived cells into the primary cultures; all ages of cultures given use this point as 0 DIV. […] Purified Type 1 astrocytes were obtained from mixed glial cultures derived from various regions of P1 rats according to a standard protocol (McCarthy, K. D. et al. J. Cell Biol. 85, 890-902 (1980)). After replating into 6- or 12-well plates, astrocytes were grown to confluency in serum-containing media and changed to N2 medium. After 3-5 DIV, co-cultures were initiated in fresh N2 as described above. All factors were added once, at the initiation of co-culture (concentrations are noted in the Results and Discussion), with the exception of 5-bromodeoxyuridine (BrdU), which was added 4-6 hours prior to fixation. Cultures were maintained in a humidified 5% CO2, 95% air incubator at 37 C and fixed after given time periods with 4% paraformaldehyde for 45 minutes for immunocytochemical analysis.
Fixed cultures were incubated with one of the following antibodies, diluted appropriately in phosphate-buffered saline (PBS) containing 1% bovine serum albumin and 0.3% Triton-X 100: mouse anti-BrdU, 1:50 (DAKO, Denmark), mouse anti-β-tubulin, Type III (TuJ1), 1:250 (Sigma), mouse anti-TH, 1:1000 (Incstar, USA), rabbit anti-β-galactosidase, 1:250 (Cappel, USA) rabbit anti-GFAP, 1:500 (DAKO, Denmark), rabbit anti-AHD-2, 1:4000. Incubations were either carried out at 4° C. overnight, or at room temperature for 1 hour. Both processes yielded similar results. After washing, cultures were incubated for 1-3 hr with appropriate secondary antibodies (biotinylated horse-anti-mouse IgG or goat-anti-rabbit IgG, Vector, USA), 1:100, in the same dilution buffer. […] Quantitative immunocytochemical data represent means and standard errors from 100-500 cells counted in each of 3-6 separate wells from 2-4 experiments. For quantitation of TH expression in co-cultures of primary and C-17.2-derived cells, TH was visualized with the brightfield AEC substrate, while β-gal was assessed using FITC, thus all data expressed as “% TH+” represents the number of TH+/β-gal+divided by total β-gal positive cells. […]

[2] = system: Nurr1 over-expressing C17.2 clones; experiment: Treatment of Nurr1 clones with trophic factors, mitogens, cytokines and other agents; TH immunoreactivity; format: cell-based, mouse; conditions: Nurr1 clones without co-culture; factors alone or combined
Excerpt: C17.2 cells were cotransfected with a CMX-Nurr1 expression vector (Perlmann, T. et al. Genes Dev. 9, 769-782 (1995)) and PGK-puromycin resistance plasmids (Nurr1 clones) or a PGK-puromycin alone (mock clones). For reporter assays, C17.2 parental cells were transfected with the Nurr1 expression vector, the reporter plasmid (NGFIB-binding response element (NBRE) triplet upstream of TK minimal promoter fused to firefly luciferase) and a pRSV-alkaline phosphatase plasmid at a 2:1:2 ratio.
as §1, with “Cultures were maintained in a humidified 5% CO2, 95% air incubator at 37 C and fixed after given time periods with 4% paraformaldehyde for 45 minutes for immunocytochemical analysis.” left out
Fixed cultures were incubated with one of the following antibodies, diluted appropriately in phosphate-buffered saline (PBS) containing 1% bovine serum albumin and 0.3% Triton-X 100: mouse anti-BrdU, 1:50 (DAKO, Denmark), mouse anti-β-tubulin, Type III (TuJ1), 1:250 (Sigma), mouse anti-TH, 1:1000 (Incstar, USA), rabbit anti-β-galactosidase, 1:250 (Cappel, USA) rabbit anti-GFAP, 1:500 (DAKO, Denmark), rabbit anti-AHD-2, 1:4000. […] Quantitative immunocytochemical data represent means and standard errors from 100-500 cells counted in each of 3-6 separate wells from 2-4 experiments. For quantitation of TH expression in co-cultures of primary and C-17.2-derived cells, TH was visualized with the brightfield AEC substrate, while β-gal was assessed using FITC, thus all data expressed as “% TH+” represents the number of TH+/β-gal+divided by total β-gal positive cells.

Molecule	neuritogenesis and/or hypertrophy [1]	induction of TH expression [2]	number of TH+ cells in the culture ([1]; compared to N2 control, NT-3 30 ng/ml)
B1	induced neuritogenesis and/or hypertrophy	None of these factors induced TH expression in any of the clones	
B2	induced neuritogenesis and/or hypertrophy	None of these factors induced TH expression in any of the clones	
B3		None of these factors induced TH expression in any of the clones	dramatically increased the number of TH+ cells
B4	induced neuritogenesis and/or hypertrophy	None of these factors induced TH expression in any of the clones	
